One assay addresses T1, mouse CD300c (mouse).
T1 sequence (A2A7V7 whole entry, looked up): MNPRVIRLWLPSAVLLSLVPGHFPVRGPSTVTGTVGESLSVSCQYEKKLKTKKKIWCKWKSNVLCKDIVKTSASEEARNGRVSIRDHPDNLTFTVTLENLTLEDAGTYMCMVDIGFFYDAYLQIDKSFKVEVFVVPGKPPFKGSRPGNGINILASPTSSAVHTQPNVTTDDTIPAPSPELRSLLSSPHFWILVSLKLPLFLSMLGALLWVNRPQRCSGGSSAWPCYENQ
In words: cell-based or functional assay.

Assay [1] concerns the target T2, CD300c antigen (11832-H08H, Sino Biological) (human, UniProt Q08708 21-183).
T2 construct: Bought antigen; also called CD300c protein; CD300 antigen-like family member C
T2 sequence (looked up): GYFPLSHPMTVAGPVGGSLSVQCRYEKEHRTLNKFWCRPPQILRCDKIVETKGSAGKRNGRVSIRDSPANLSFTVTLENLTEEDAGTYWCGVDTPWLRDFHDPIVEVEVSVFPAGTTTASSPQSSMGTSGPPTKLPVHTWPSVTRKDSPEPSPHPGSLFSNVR
In words: binding ELISA, plate coated with CD300c antigen (8 µg/mL), HRP anti-Fc IgG detection. The protocol:
In order to identify the antigen-binding ability of the anti-CD300c monoclonal antibodies produced in Example 1, binding ELISA was performed. Specifically, a CD300c antigen (11832-H08H, Sino Biological) or a CD300a antigen (12449-H08H, Sino Biological) in a coating buffer (0.1 M sodium carbonate, pH 9.0) was dispensed into an ELISA plate at a concentration of 8 μg/mL per well, followed by incubation at room temperature for 3 hours to allow the antigen to be bound to the plate. The unbound antigens were removed by washing three times using phosphate buffered saline-Tween 20 (PBST), and then 300 μL of PBST supplemented with 5% bovine serum albumin (BSA) was added to each well, followed by incubation at room temperature for 1 hour and then washing using PBST. Then, an anti-CD300c monoclonal antibody was diluted in quadruplicate and added thereto, followed by incubation for 1 hour at room temperature for antigen binding. After 1 hour, washing was performed three times using PBST to remove unbound anti-CD300c monoclonal antibody, and then 4 μg/mL of an antibody for detection (HRP conjugated anti-Fc IgG) was added, followed by incubation again at room temperature for 1 hour. Subsequently, the unbound antibody for detection was removed using PBST, and then TMB solution was added, followed by incubation for 10 minutes for development. Then, 2 N sulfuric acid solution was added to terminate the development reaction, and the absorbance was measured at 450 nm to identify the antibodies specifically binding to the CD300c antigen.
For orientation: An ELISA detects its analyte on a solid surface through an enzyme-linked reagent.

Assay [2] has as its target T2, CD300c antigen (11832-H08H, Sino …). In words: selection ELISA of Example 1.2, scFv periplasmic extract on coated CD300c antigen. The protocol: In order to select anti-CD300c monoclonal antibodies specifically binding, with high binding affinity, to a CD300c antigen, ELISA was performed using the library pool obtained by the same method as in Example 1.1. More specifically, each of a CD300c antigen and a CD300a antigen in a coating buffer (0.1 M sodium carbonate, pH 9.0) was dispensed into an ELISA plate at a concentration of 5 μg/mL per well, followed by incubation at room temperature for 3 hours, to allow the antigen to bind to the plate. The unbound antigens were removed by washing three times using phosphate buffered saline-Tween 20 (PBST), and then 350 μL of PBST supplemented with 2% bovine serum albumin (BSA) was added to each well, followed by incubation at room temperature for 1 hour and then washing again using PBST. Then, 25 μg of a periplasmic extract containing scFv obtained by the same method as in Example 1.1 was added thereto, followed by incubation for 1 hour at room temperature for antigen binding. After 1 hour, the unbound scFv was removed by washing three times using PBST, and then 4 μg/mL of an antibody for detection was added, followed by incubation again at room temperature for 1 hour. Subsequently, the unbound antibodies for detection were removed using PBST, and then HRP-conjugated anti-rabbit IgG was added, followed by incubation at room temperature for 1 hour. The unbound antibodies were removed again using PBST. Subsequently, 3,3′,5,5′-tetramethylbenzidine (TMB) solution was added, followed by incubation for 10 minutes for development. Then, 2 N sulfuric acid solution was added to terminate the development reaction, and the absorbance was measured at 450 nm to identify the antibodies specifically binding to the CD300c antigen.

Where a chain is given by its changes, count along the chain named.

B1: SL18 (antibody, V domains shown)
VH: RVQLLESGGGLVQPGGSLRLSCAASGFTFSDYHMHWVRQAPGKGLEWVSTISSSGGYTYYAESVKSRFTISRDNSKNTLYLQMNSLRAEDTAVYYCARSIRLPLDYWGQGTLVTVSS
VL: QSVLTQPPSASGTPGQRVTISCSGNNIGSKGVHWYQQLPGTAPKLLIYEDSKRPSGVRDRFSGSKSGTSASLAISGLRSEDEADYYCQSYDSTKGVVFGGGTKLTVL
notes: also called anti-CD300c monoclonal antibody SL18; CB301 antibody SL18
For the molecule B1, the “cancer cell proliferation inhibitory effect, CT26 mouse colon cancer cells, 10 ug/mL antibody, 5 days, CCK-8” value with mouse CD300c amounted to 38%. Also, a half-maximal response in assay [1] (EC50) required 0.17 mg/L.

B2: CL10 (antibody, V domains shown)
VH: EVQLLESGGGLVQPGGSLRLSCAASGFTFSSYGMHWVRQAPGKGLEWVSAISGSGGSTYYADSVKGRFTISRDNSKNTLYLQMNSLRAEDTAVYYCASGYGLMDVWGQGTLVTVSS
VL: QSVLTQPPSASGTPGQRVTISCTRSSGIIASNYVQWYQQLPGTAPKLLIYRNNQRPSGVPDRFSGSKSGTSASLAISGLRSEDEADYYCSSYAGNNNLVFGGGTKLTVL
notes: also called anti-CD300c monoclonal antibody CL10; CB301 antibody CL10
For the molecule B2, in the assay with mouse CD300c, the “cancer cell proliferation inhibitory effect, CT26 mouse colon cancer cells, 10 ug/mL antibody, 5 days, CCK-8” value turned out to be 15%. For the same molecule, a half-maximal effect in assay [1] (EC50) was put at 0.039 mg/L.

B3: CB301_OPALTL_E6 (antibody, V domains shown)
VH: B2 VH with S57Y, S98R, G99W, Y100H, G101Y, L102S, M103F, V105Y
VL: QSVLTQPPSASGTPGQRVTISCSGSSSNIGNNYVSWYQQLPGTAPKLLIYRNNQRPSGVPDRFSGSKSGTSASLAISGLRSEDEADYYCQSYDNSNVLFGGGTKLTVL
Turning to B3, the binding result in assay [2] is on record as “binds”.

B4: CB301_OPALTL_B5 (antibody, V domains shown)
VH: EVQLLESGGGLVQPGGSLRLSCAASGFTFSHYAMSWVRQAPGKGLEWVSAISGSGGSTYYADSVKGRFTISRDNSKNTLYLQMNSLRAEDTAVYYCARGWDSPTLTYFDSWGQGTLVTVSS
VL: QSVLTQPPSASGTPGQRVTISCSGTSSNIGNNDVSWYQQLPGTAPKLLIYQDTKRPSGVPDRFSGSKSGTSASLAISGLRSEDEADYYCAAWDDSLSGPVFGGGTKLTVL
For B4, the binding result in assay [2] is “binds”.

B5: CB301_H3L1_F4 (antibody, V domains shown)
VH: EVQLLESGGGLVQPGGSLRLSCAASGFTFSGYAMSWVRQAPGKGLEWVSAISGSGGSTYYADSVKGRFTISRDNSKNTLYLQMNSLRAEDTAVYYCARSPSGLFDYWGQGTLVTVSS
VL: QSVLTQPPSASGTPGQRVTISCGGNNIGSKRVHWYQQLPGTAPKLLIYNTSNKHSGVPDRFSGSKSGTSASLAISGLRSEDEADYYCSSYLQQHSLFGGGTKLTVL
For the molecule B5, the binding result in assay [2] is reported as “binds”.

These data come from US20240254220A1 (CENTRICSBIO, published 2024).
